According to PMC6166240 (Cell reports, 2018):

Biological target: T1, Extradenticle (Exd), residues 237-310 of isoform A (homeodomain and ten further residues) (Drosophila)
T1 chain: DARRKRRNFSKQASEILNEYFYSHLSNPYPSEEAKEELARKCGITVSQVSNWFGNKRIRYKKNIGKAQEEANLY
Test: crystal structure

- binding result: binds
B1: Abdominal-B (AbdB), residues 146-229 of isoform A (W motif, linker and homeodomain) (domain or fragment)
chain: not shown
